From publication PMC4920411, “Binary Toxin Subunits of Lysinibacillus sphaericus Are Monomeric and Form Heterodimers after In Vitro Activation” (PLoS ONE, 2016) come the findings set out here.

Details in all cases: both partners purified
Assay [1] has as its target T1, activated BinB (act-B), trypsin-cleaved (Lysinibacillus sphaericus).
T1 chain: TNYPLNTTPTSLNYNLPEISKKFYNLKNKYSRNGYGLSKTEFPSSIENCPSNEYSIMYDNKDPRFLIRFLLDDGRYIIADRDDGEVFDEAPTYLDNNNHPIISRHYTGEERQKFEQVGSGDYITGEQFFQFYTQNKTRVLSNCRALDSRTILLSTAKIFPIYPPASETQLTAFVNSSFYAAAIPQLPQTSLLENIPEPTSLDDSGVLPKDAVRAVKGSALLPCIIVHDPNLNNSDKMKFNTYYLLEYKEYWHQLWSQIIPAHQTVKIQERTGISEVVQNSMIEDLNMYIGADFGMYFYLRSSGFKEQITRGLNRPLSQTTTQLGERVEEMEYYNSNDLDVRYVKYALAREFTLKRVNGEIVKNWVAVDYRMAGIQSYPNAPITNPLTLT
Nature of the assay: AUC; sedimentation equilibrium, 20°C, 3–10 μM in monomer, 10 to 22.5 krpm, 50 mM Tris-HCl pH 9.0, 50 mM NaCl, 1 mM DTT, without detergent; global fit to an A+B heteroassociation model (SEDPHAT).

The target of assay [2] is T1, activated BinB (act-B), trypsin-cleaved. Nature of the assay: AUC; sedimentation equilibrium, 20°C, 3–10 μM in monomer, 10 to 22.5 krpm, same buffer with 35 mM C8E5 density matched with 16% D2O; global fit to an A+B heteroassociation model (SEDPHAT).
The target is the same in assay [3]. Nature of the assay: SEC; Superdex 200 HR 10/30, 50 mM Tris-HCl pH 9.0, 50 mM NaCl, 1 mM DTT; subunits alone or mixed 1:1, incubated 15 min at room temperature; typically 60 μM before and 18 μM after chromatography (total monomer); eluted band checked by SDS-PAGE and MALDI-TOF. On the technique in general: SEC sorts molecules by how far they enter the pores of the column.

B1: activated BinA (act-A), trypsin-cleaved (domain or fragment)
chain: IDSFIPTEGKYIRVMDFYNSEYPFCIHAPSAPNGDIMTEICSRENNQYFIFFPTDDGRVIIANRHNGSVFTGEATSVVSDIYTGSPLQFFREVKRTMATYYLAIQNPESATDVRALEPHSHELPSRLYYTNNIENNSNILISNKEQIYLTLPSLPENEQYPKTPVLSGIDDIGPNQSEKSIIGSTLIPCIMVSDFISLGERMKTTPYYYVKHTQYWQSMWSALFPPGSKETKTEKSGITDTSQISMTDGINVSIGADFGLRFGNKTFGIKGGFTYDTKTQITNTSQLLIETTYTREYTNTENFPVRYTGYVLASEFTLHRSDGTQVNTIPWVALNDNYTTIARYPHFASEPLLGNTKIITDDQN
modifications: Trypsin-activated. Cleavage sites not given; UniProt mature chain limits used (MALDI about 40.8 kDa). Strain not given; P06575 chosen over the strain variant P05516. / Trypsin-activated. Cleavage
In the case of B1, the figures for the Ka in assay [1] and in assay [2] were 1.19e+06 M⁻¹ and 1.92e+06 M⁻¹, respectively. For the same molecule, the stoichiometry N – broadly, the number of molecules, sites or subunits per partner or assembly – in assay [3] amounted to 1.
